In publication PMC7797052 (Nucleic Acids Research, 2020):
Substitutions are numbered along the chain they refer to. In names and notes the source's numbering stands. Values belong to the binder of their own block, whether it stands above or below them.

Legend:
SAXS = target: the molecule itself; assay: SAXS
SEC = target: the molecule itself; assay: SEC
[1] = target: X1BR2-GFP (C-terminal BRCT domain of XRCC1 fused to C-terminal GFP) (human, UniProt P18887 538-633); assay: GFP-fluorescence-based competition binding assay
L3BR (residues 825-922) = target: T1, L3BR (residues 825-922) (human, UniProt P49916-3 825-922); assay: native gel or EMSA
T1 sequence (looked up): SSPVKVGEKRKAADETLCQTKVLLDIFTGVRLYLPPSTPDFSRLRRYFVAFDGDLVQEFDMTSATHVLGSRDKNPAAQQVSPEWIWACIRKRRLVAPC

B1: phosphorylated XRCC1ΔN (XRCC1ΔN-p, residues 294-633) (domain or fragment, human, UniProt P18887 294-633, looked up)
chain: AVTGKPRGEGTEPRRPRAGPEELGKILQGVVVVLSGFQNPFRSELRDKALELGAKYRPDWTRDSTHLICAFANTPKYSQVLGLGGRIVRKEWVLDCHRMRRRLPSQRYLMAGPGSSSEEDEASHSGGSGDEAPKLPQKQPQTKTKPTQAAGPSSPQKPPTPEETKAASPVLQEDIDIEGVQSEGQDNGAEDSGDTEDELRRVAEQKEHRLPPGQEENGEDPYAGSTDENTDSEEHQEPPDLPVPELPDFFQGKHFFLYGEFPGDERRKLIRYVTAFNGELEDYMSDRVQFVITAQEWDPSFEEALMDNPSLAFVRPRWIYSCNEKQKLLPHQLYGVVPQA
modifications: phosphorylated by casein kinase II (CK2) in the region between X1BR1 and X1BR2; sites not given
- binding result (SAXS): binds

- EC50 [1]: 1240 nM
B2: MBP-L3BR^832 (C-terminal BRCT domain of DNA ligase IIIα, residues 832-922, N-terminal MBP fusion) (domain or fragment, human, UniProt P49916-3 832-922, looked up)
chain: EKRKAADETLCQTKVLLDIFTGVRLYLPPSTPDFSRLRRYFVAFDGDLVQEFDMTSATHVLGSRDKNPAAQQVSPEWIWACIRKRRLVAPC
- stoichiometry N (SEC): 2

B3: L3BR^832 fused to C-terminal GFP (domain or fragment, human, UniProt P49916-3 832-922, looked up)
chain: B2 chain
- stoichiometry N (SEC): 2

B4: L3BR^832 (untagged, residues 832-922 of DNA ligase IIIα) (domain or fragment, human, UniProt P49916-3 832-922, looked up)
chain: B2 chain
- stoichiometry N (SAXS): 2

- EC50 [1]: 670 nM
B5: MBP-L3BR^844 (L3BR^832 lacking its 12 N-terminal residues, MBP fusion) (domain or fragment, human, UniProt P49916-3 844-922, looked up)
chain: TKVLLDIFTGVRLYLPPSTPDFSRLRRYFVAFDGDLVQEFDMTSATHVLGSRDKNPAAQQVSPEWIWACIRKRRLVAPC

- binding result (L3BR (residues 825-922)): binds
B6: X1BR2 L626E (residues 538-633), designated wild type (WT) in Figure 1E (domain or fragment, human, UniProt P18887 538-633, looked up)
chain: ELPDFFQGKHFFLYGEFPGDERRKLIRYVTAFNGELEDYMSDRVQFVITAQEWDPSFEEALMDNPSLAFVRPRWIYSCNEKQKLLPHQEYGVVPQA

- binding result (L3BR (residues 825-922)): binds
B7: X1BR2 Y565A (on the L626E template, residues 538-633) (domain or fragment, human, UniProt P18887 538-633, looked up)
chain: B6 chain with Y28A

- binding result (L3BR (residues 825-922)): binds
B8: X1BR2 N570A (on the L626E template, residues 538-633) (domain or fragment, human, UniProt P18887 538-633, looked up)
chain: B6 chain with N33A

- binding result (L3BR (residues 825-922)): binds
B9: X1BR2 F569A (on the L626E template, residues 538-633) (domain or fragment, human, UniProt P18887 538-633, looked up)
chain: B6 chain with F32A
